Experimental data as given in US20090162336A1.
Blank lines part the entries; values can stand above or below the substance they belong to.

Experiments:
[1] = molecular target: taxol-stabilized microtubules made from PC tubulin; experiment: microtubule pelleting assay, gel densitometry, 30 µM polymerized tubulin
[2] = molecular target: taxol-stabilized microtubules made from PC tubulin; experiment: microtubule pelleting assay
[3] = molecular target: taxol-stabilized microtubules made from PC tubulin; experiment: microtubule pelleting assay, brain extract phosphorylation
[4] = molecular target: taxol-stabilized microtubules made from PC tubulin; experiment: microtubule pelleting assay, after 35 kDal kinase
[5] = molecular target: taxol-stabilized microtubules made from PC tubulin; experiment: microtubule pelleting assay, after 35 kDal kinase, against unphosphorylated htau23
[6] = molecular target: taxol-stabilized microtubules made from PC tubulin; experiment: microtubule pelleting assay, microtubules from 10 µM tubulin with 20 µM taxol

- fold reduction in binding capacity against unphosphorylated htau34 [2]: 3 fold
Substance: htau34 phosphorylated with the brain extract kinase activity (24 hours) (from UniProt P10636 1-412)

- fold decrease in stoichiometry upon phosphorylation [2]: 3 fold
Substance: htau34 phosphorylated for 90 min with the brain extract kinase activity (stage 1) (from UniProt P10636 1-412)

- Kd [4]: 11.6 µM
- stoichiometry n (tau/tubulin dimer) (tau/tubulin dimer) [4]: 0.44
- reduction in stoichiometry upon phosphorylation (Dn) (tau/tubulin dimer) [5]: 0.05
Substance: htau23 mutant Ser262-Ala phosphorylated by the 35 kDal kinase (from UniProt P10636 1-352)

The next lines start with the substance.

Substance: bacterially expressed human tau isoform htau34, unphosphorylated (from UniProt P10636 1-412)
- Kd [1]: 1 to 2 µM

Substance: htau23 phosphorylated with the brain extract kinase activity (full, stage 3, 24 hours) (from UniProt P10636 1-352)
- Dn (difference in stoichiometry upon phosphorylation) (tau/tubulin dimer) [3]: 0.33
- Kd [1]: 4.9 µM
- stoichiometry n (tau/tubulin dimer) (tau/tubulin dimer) [1]: 0.16

Substance: S404-A mutant of htau34 after 90 min of phosphorylation with the brain extract kinase activity (from UniProt P10636 1-412)
- fold decrease in stoichiometry upon phosphorylation [2]: 2 fold

Substance: htau23 phosphorylated by the 35 kDal kinase (from UniProt P10636 1-352)
- Kd [4]: 8.8 µM
- stoichiometry n (tau/tubulin dimer) (tau/tubulin dimer) [4]: 0.21
- reduction in stoichiometry upon phosphorylation (Dn) (tau/tubulin dimer) [5]: 0.28

Substance: htau23 phosphorylated with GSK3 (from UniProt P10636 1-352)
- stoichiometry at saturation (tau per tubulin dimer) (per tubulin dimer) [6]: 0.6

Substance: htau23 mutant Ser262-Ala phosphorylated with brain extract (from UniProt P10636 1-352)
- Dn (difference in stoichiometry upon phosphorylation) (tau/tubulin dimer) [3]: 0.04
- Kd [1]: 5.3 µM
- stoichiometry n (tau/tubulin dimer) (tau/tubulin dimer) [1]: 0.45
